From patent US6353153B1, “Enhanced transport with a plastid membrane transport protein” (priority 1996, dated 2002)

Key:
[1] = test system: β-lactamase transport in E. coli JM109(DE3); assay: Ampicillin resistance, ability to form colonies on LB-agar plates with increasing ampicillin; assay type: cell-based, Escherichia coli; conditions: solid agar media with increasing ampicillin
Source text: The enhancement of protein translocation was further investigated using the plasmid-borne multicopy gene, β-lactamase. See Example 14. β-lactamase protein levels are much higher than induced alkaline phosphatase making this system a more sensitive monitor of protein translocation without the complications posed by low phosphate induction. Like alkaline phosphatase, β-lactamase is translocated into the periplasm, where it detoxifies the antibiotic ampicillin, thereby conferring ampicillin-resistance to cells. Because the level of antibiotic resistance conferred also reflects the level of protein transport activity, the level of ampicillin resistance was determined for Bce44B expressing cells and compared to that of Oee1-Dhfr-expressing cells on solid agar media containing increasing concentrations of ampicillin. […] The Bce44B-expressing cells formed colonies with ampicillin concentrations as high as 3 mg/ml, whereas Oee1-Dhfr-expressing cells could not form colonies beyond 1 mg/ml.
Changes to β-lactamase transport were monitored by two different approaches: 1) the ability to form colonies on solid LB-agar plates containing increasing concentrations of ampicillin (50 μg/ml to 3.0 mg/ml); and 2) the level of transported and processed β-lactamase detected by immunoblotting total protein samples of cells grown in LB-broth containing increasing ampicillin concentrations. […]

[2] = test system: β-lactamase transport in E. coli MM52 (secAts); assay: Ampicillin resistance, colony formation in temperature-sensitive secA mutant strain MM52; assay type: cell-based, Escherichia coli; conditions: 30° C. permissive temperature
Source text: The effects of Bce44B on β-lactamase transport were further tested in a temperature-sensitive secA (secAts) mutant bacterial strain (MM52, a gift from Dr. Jon Beckwith, Harvard Medical School, Boston Mass.) to provide further evidence that the expressed Bce44B component affected protein translocation in bacteria and that the protein transport enhancement was not due solely to the upregulation of the existing bacterial transport machinery such as SecA. See Example 17. The defective protein translocation phenotype in MM52 appears primarily when cells are subjected to temperatures above 30° C. Protein translocation slows down and comes to a halt upon shifting to temperatures above 30° C. […] Effects on protein transport can then be monitored in this strain by tracking the β-lactamase profiles at permissive and non-permissive temperatures.
The same Bce44B gene construct and control Oee1-Dhfr plasmid were introduced into MM52 and its wild type counterpart strain MC4100 (containing the wild-type SecA) via electroporation. The role of Bce44B in protein translocation was assessed as before using three different criteria: 1) the level of antibiotic resistance conferred; 2) the profile of transported versus precursor β-lactamase at permissive and non-permissive temperatures; and 3) the level of sensitivity of protein transport to sodium azide. […]

B1: Bce44B: plastid transport protein, Brassica napus 44 kDa chloroplast envelope protein, member of Com44/Cim44, encoded by SEQ ID NO:1 (protein)
chain: MQTAMKTMMNQMNTQNSQFNNPGFPTGAGAGAGSPFPFPFPPQTSPTTSPFQPQSQSSGATVDLTATKVDRPPVSKPQPTPIPPTKSIEVYKPSVVVEENKAMKEEKNYAFEDVSPEETTKESPFSNYEEVSETSAPKETRLFDDVLQNGAAPANGATASDVFQSLGAGKGWAGGSVEVLEKMIEYPTFQKMLYPHLPEEMRNPESFKWVRKNPQYRQQLQDMLNNMSESGEWDKRMTETLKNFDPNSPEVKQGFDQLGLTPEEVISKIMENPDVSMAFQNPRVEAALMDCSENPMNIMKYQNDKEVMDVFNKISQLFPGLTG
Question: Which results are given for B1?
Answer: ampicillin concentration up to which expressing cells form colonies [1]: ≤ 3 mg/mL; ampicillin concentration up to which expressing cells form colonies [2]: up to 3 mg/ml
